From patent CN116510007A

Biological target: 人IL-11Rα (全长基因, stably expressed on STAT3-luc HEK293 cells) (human) (UniProt Q14626)
Experiment: cell-based or functional assay

Sequence of UniProt Q14626 (Q14626 23-422): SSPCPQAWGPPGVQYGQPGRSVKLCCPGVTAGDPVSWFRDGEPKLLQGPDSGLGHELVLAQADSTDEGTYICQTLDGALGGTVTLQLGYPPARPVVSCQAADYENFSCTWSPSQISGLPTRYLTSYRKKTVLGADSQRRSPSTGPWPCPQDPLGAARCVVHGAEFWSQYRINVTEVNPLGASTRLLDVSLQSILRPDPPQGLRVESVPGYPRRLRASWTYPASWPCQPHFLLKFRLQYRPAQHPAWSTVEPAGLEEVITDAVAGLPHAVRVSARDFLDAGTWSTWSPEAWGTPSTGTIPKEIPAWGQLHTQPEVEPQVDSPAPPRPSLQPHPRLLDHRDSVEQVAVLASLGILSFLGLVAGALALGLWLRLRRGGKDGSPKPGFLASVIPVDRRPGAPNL

An IL-11刺激STAT3报告基因转录表达的EC50 of 0.11 ng/mL was found for IL-11 (ligand) in this work.
